# T1: recombinant human interleukin 1 alpha (IL-1α) (human, UniProt P01583 113-271)
# T1 sequence (looked up): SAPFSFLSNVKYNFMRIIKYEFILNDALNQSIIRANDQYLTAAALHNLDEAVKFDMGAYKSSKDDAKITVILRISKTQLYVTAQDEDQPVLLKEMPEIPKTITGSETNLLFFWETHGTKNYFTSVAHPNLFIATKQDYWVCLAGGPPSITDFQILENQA
# B1: XIA11 human monoclonal antibody (antibody, V domains shown)
# VH: QVQLVQSGAEVKKPGSSVKVSCKASGGRFTNYAILWVRQAPGQGLQWLGGIIPIFDETDHAQDFQDRLTITVDESMTTAYMELSSLRPEDTAIYYCATGSNSYYGLYWGQGTLVTVSS
# VL: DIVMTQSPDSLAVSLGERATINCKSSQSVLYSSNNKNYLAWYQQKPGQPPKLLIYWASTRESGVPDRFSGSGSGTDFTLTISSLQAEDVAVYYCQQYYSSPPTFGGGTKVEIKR
# Target: T1, recombinant human interleukin 1 alpha …
# Experiment: cell-based or functional assay
binder,measurement,value
B1,"HUVEC-based potency assay (ICAM-1 expression by flow cytometry), IC50",3.4 ng/mL
